Our source for the Kd values is patent US20230212304A1.

Assay [1] addresses cynomolgus monkey CTLA4-his protein (Acro biosystems, Cat#CT4-C5227) (cynomolgus monkey) (UniProt G7PL88). Nature of the assay: SPR, Biacore T200; benchmark on Protein G chip, CTLA4-his as analyte. For orientation: In SPR one partner is held on a chip, and binding of the other changes the refractive index at the surface.
The target is the same in assay [2]. Nature of the assay: SPR, Biacore; antibody captured on anti-human IgG CM5 chip, CTLA4-his as analyte.

pKd: −log10 of the molar value.

cynomolgus monkey CTLA4-his protein (Acro biosystems, Cat#CT4-C5227) (cynomolgus monkey), sequence (G7PL88 entry or part of it): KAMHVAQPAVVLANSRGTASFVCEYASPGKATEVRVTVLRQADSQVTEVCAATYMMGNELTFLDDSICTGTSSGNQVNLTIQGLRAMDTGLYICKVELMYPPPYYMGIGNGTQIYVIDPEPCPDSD

As for “Yervoy® (Bristol-Myers Squibb Co, Cat# NDC: 0003-2327-11) (antibody)”, the pKd was 8.53 in assay [1] and 8.66 in assay [2].

A word on the pKd: it is the Kd on a negative log10 scale, so that one unit is a factor of ten.
